Assay results published in patent US20090099029A1, “Methods and substrates for conducting assays” (Invitrogen Corporation, priority 2005, published 2009).

B1: PRKCE (protein)
chain: MVVFNGLLKIKICEAVSLKPTAWSLRHAVGPRPQTFLLDPYIALNVDDSRIGQTATKQKTNSPAWHDEFVTDVCNGRKIELAVFHDAPIGYDDFVANCTIQFEELLQNGSRHFEDWIDLEPEGRVYVIIDLSGSSGEAPKDNEERVFRERMRPRKRQGAVRRRVHQVNGHKFMATYLRQPTYCSHCRDFIWGVIGKQGYQCQVCTCVVHKRCHELIITKCAGLKKQETPDQVGSQRFSVNMPHKFGIHNYKVPTFCDHCGSLLWGLLRQGLQCKVCKMNVHRRCETNVAPNCGVDARGIAKVLADLGVTPDKITNSGQRRKKLIAGAESPQPASGSSPSEEDRSKSAPTSPCDQEIKELENNIRKALSFDNRGEEHRAASSPDGQLMSPGENGEVRQGQAKRLGLDEFNFIKVLGKGSFGKVMLAELKGKDEVYAVKVLKKDVILQDDDVDCTMTEKRILALARKHPYLTQLYCCFQTKDRLFFVMEYVNGGDLMFQIQRSRKFDEPRSRFYAAEVTSALMFLHQHGVIYRDLKLDNILLDAEGHCKLADFGMCKEGILNGVTTTTFCGTPDYIAPEILQELEYGPSVDWWALGVLMYEMMAGQPPFEADNEDDLFESILHDDVLYPVWLSKEAVSILKAFMTKNPHKRLGCVASQNGEDAIKQHPFFKEIDWVLLEQKKIKPPFKPRIKTKRDVNNFDQDFTREEPVLTLVDEAIVKQINQEEFKGFSYFGEDLMP
B2: PRKD1(PKD) (protein)
chain: MSAPPVLRPPSPLLPVAAAAAAAAAALVPGSGPGPAPFLAPVAAPVGGISFHLQIGLSREPVLLLQDSSGDYSLAHVREMACSIVDQKFPECGFYGMYDKILLFRHDPTSENILQLVKAASDIQEGDLIEVVLSASATFEDFQIRPHALFVHSYRAPAFCDHCGEMLWGLVRQGLKCEGCGLNYHKRCAFKIPNNCSGVRRRRLSNVSLTGVSTIRTSSAELSTSAPDEPLLQKSPSESFIGREKRSNSQSYIGRPIHLDKILMSKVKVPHTFVIHSYTRPTVCQYCKKLLKGLFRQGLQCKDCRFNCHKRCAPKVPNNCLGEVTINGDLLSPGAESDVVMEEGSDDNDSERNSGLMDDMEEAMVQDAEMAMAECQNDSGEMQDPDPDHEDANRTISPSTSNNIPLMRVVQSVKHTKRKSSTVMKEGWMVHYTSKDTLRKRHYWRLDSKCITLFQNDTGSRYYKEIPLSEILSLEPVKTSALIPNGANPHCFEITTANVVYYVGENVVNPSSPSPNNSVLTSGVGADVARMWEIAIQHALMPVIPKGSSVGTGTNLHRDISVSISVSNCQIQENVDISTVYQIFPDEVLGSGQFGIVYGGKHRKTGRDVAIKIIDKLRFPTKQESQLRNEVAILQNLHHPGVVNLECMFETPERVFVVMEKLHGDMLEMILSSEKGRLPEHITKFLITQILVALRHLHFKNIVHCDLKPENVLLASADPFPQVKLCDFGFARIIGEKSFRRSVVGTPAYLAPEVLRNKGYNRSLDMWSVGVIIYVSLSGTFPFNEDEDIHDQIQNAAFMYPPNPWKEISHEAIDLINNLLQVKMRKRYSVDKTLSHPWLQDYQTWLDLRELECKIGERYITHESDDLRWEKYAGEQGLQYPTHLINPSASHSDTPETEETEMKALGERVSIL
modifications: left off: a dimerising Fc or GST
B3: PRKCZ (protein)
chain: MPSRTGPKMEGSGGRVRLKAHYGGDIFITSVDAATTFEELCEEVRDMCRLHQQHPLTLKWVDSEGDPCTVSSQMELEEAFRLARQCRDEGLIIHVFPSTPEQPGLPCPGEDKSIYRRGARRWRKLYRANGHLFQAKRFNRRAYCGQCSERIWGLARQGYRCINCKLLVHKRCHGLVPLTCRKHMDSVMPSQEPPVDDKNEDADLPSEETDGIAYISSSRKHDSIKDDSEDLKPVIDGMDGIKISQGLGLQDFDLIRVIGRGSYAKVLLVRLKKNDQIYAMKVVKKELVHDDEDIDWVQTEKHVFEQASSNPFLVGLHSCFQTTSRLFLVIEYVNGGDLMFHMQRQRKLPEEHARFYAAEICIALNFLHERGIIYRDLKLDNVLLDADGHIKLTDYGMCKEGLGPGDTTSTFCGTPNYIAPEILRGEEYGFSVDWWALGVLMFEMMAGRSPFDIITDNPDMNTEDYLFQVILEKPIRIPRFLSVKASHVLKGFLNKDPKERLGCRPQTGFSDIKSHAFFRSIDWDLLEKKQALPPFQPQITDDYGLDNFDTQFTSEPVQLTPDDEDAIKRIDQSEFEGFEYINPLLLSTEESV
B4: PHKG2 (protein)
chain: MTLDVGPEDELPDWAAAKEFYQKYDPKDVIGRGVSSVVRRCVHRATGHEFAVKIMEVTAERLSPEQLEEVREATRRETHILRQVAGHPHIITLIDSYESSSFMFLVFDLMRKGELFDYLTEKVALSEKETRSIMRSLLEAVSFLHANNIVHRDLKPENILLDDNMQIRLSDFGFSCHLEPGEKLRELCGTPGYLAPEILKCSMDETHPGYGKEVDLWACGVILFTLLAGSPPFWHRRQILMLRMIMEGQYQFSSPEWDDRSSTVKDLISRLLQVDPEARLTAEQALQHPFFERCEGSQPWNLTPRQRFRVAVWTVLAAGRVALSTHRVRPLTKNALLRDPYALRSVRHLIDNCAFRLYGHWVKKGEQQNRAALFQHRPPGPFPIMGPEEEGDSAAITEDEAVLVLG
modifications: left off: small tags and cut ends
B5: PLK3 (protein)
chain: SGRTYLKGRLLGKGGFARCYEATDTETGSAYAVKVIPQSRVAKPHQREKILNEIELHRDLQHRHIVRFSHHFEDADNIYIFLELCSRKSLAHIWKARHTLLEPEVRYYLRQILSGLKYLHQRGILHRDLKLGNFFITENMELKVGDFGLAARLEPPEQRKKTICGTPNYVAPEVLLRQGHGPEADVWSLGCVMYTLLCGSPPFETADLKETYRCIKQVHYTLPASLSLPARQLLAAILRASPRDRPSIDQILRHDFFTKGYTPDRLPISSCVTVPDLTPPNPA
modifications: left off: a dimerising Fc or GST
B6: EPHB1 (protein)
chain: SRKRAYSKEAVYSDKLQHYSTGRGSPGMKIYIDPFTYEDPNEAVREFAKEIDVSFVKIEEVIGAGEFGEVYKGRLKLPGKREIYVAIKTLKAGYSEKQRRDFLSEASIMGQFDHPNIIRLEGVVTKSRPVMIITEFMENGALDSFLRQNDGQFTVIQLVGMLRGIAAGMKYLAEMNYVHRDLAARNILVNSNLVCKVSDFGLSRYLQDDTSDPTYTSSLGGKIPVRWTAPEAIAYRKFTSASDVWSYGIVMWEVMSFGERPYWDMSNQDVINAIEQDYRLPPPMDCPAALHQLMLDCWQKDRNSRPRFAEIVNTLDKMIRNPASLKTVATITAVPSQPLLDRSIPDFTAFTTVDDWLSAIKMVQYRDSFLTAGFTSLQLVTQMTSEDLLRIGITLAGHQKKILNSIHSMRVQISQSPTAMA
modifications: left off: a dimerising Fc or GST
B7: PAK6 (protein)
chain: MFRKKKKKRPEISAPQNFQHRVHTSFDPKEGKFVGLPPQWQNILDTLRRPKPVVDPSRITRVQLQPMKTVVRGSAMPVDGYISGLLNDIQKLSVISSNTLRGRSPTSRRRAQSLGLLGDEHWATDPDMYLQSPQSERTDPHGLYLSCNGGTPAGHKQMPWPEPQSPRVLPNGLAAKAQSLGPAEFQGASQRCLQLGACLQSSPPGASPPTGTNRHGMKAAKHGSEEARPQSCLVGSATGRPGGEGSPSPKTRESSLKRRLFRSMFLSTAATAPPSSSKPGPPPQSKPNSSFRPPQKDNPPSLVAKAQSLPSDQPVGTFSPLTTSDTSSPQKSLRTAPATGQLPGRSSPAGSPRTWHAQISTSNLYLPQDPTVAKGALAGEDTGVVTHEQFKAALRMVVDQGDPRLLLDSYVKIGEGSTGIVCLAREKHSGRQVAVKMMDLRKQQRRELLFNEVVIMRDYQHFNVVEMYKSYLVGEELWVLMEFLQGGALTDIVSQVRLNEEQIATVCEAVLQALAYLHAQGVIHRDIKSDSILLTLDGRVKLSDFGFCAQISKDVPKRKSLVGTPYWMAPEVISRSLYATEVDIWSLGIMVIEMVDGEPPYFSDSPVQAMKRLRDSPPPKLKNSHKVSPVLRDFLERMLVRDPQERATAQELLDHPFLLQTGLPECLVPLIQLYRKQTSTC
modifications: left off: small tags and cut ends
B8: EPHB2 (protein)
chain: CNRRGFERADSEYTDKLQHYTSGHMTPGMKIYIDPFTYEDPNEAVREFAKEIDISCVKIEQVIGAGEFGEVCSGHLKLPGKREIFVAIKTLKSGYTEKQRRDFLSEASIMGQFDHPNVIHLEGVVTKSTPVMIITEFMENGSLDSFLRQNDGQFTVIQLVGMLRGIAAGMKYLADMNYVHRDLAARNILVNSNLVCKVSDFGLSRFLEDDTSDPTYTSALGGKIPIRWTAPEAIQYRKFTSASDVWSYGIVMWEVMSYGERPYWDMTNQDVINAIEQDYRLPPPMDCPSALHQLMLDCWQKDRNHRPKFGQIVNTLDKMIRNPNSLKAMAPLSSGINLPLLDRTIPDYTSFNTVDEWLEAIKMGQYKESFANAGFTSFDVVSQMMMEDILRVGVTLAGHQKKILNSIQVMRAQMNQIQSVEV
modifications: left off: a dimerising Fc or GST
B9: EPHA8 (protein)
chain: KKRHCGYSKAFQDSDEEKMHYQNGQAPPPVFLPLHHPPGKLPEPQFYAEPHTYEEPGRAGRSFTREIEASRIHIEKIIGSGDSGEVCYGRLRVPGQRDVPVAIKALKAGYTERQRRDFLSEASIMGQFDHPNIIRLEGVVTRGRLAMIVTEYMENGSLDTFLRTHDGQFTIMQLVGMLRGVGAGMRYLSDLGYVHRDLAARNVLVDSNLVCKVSDFGLSRVLEDDPDAAYTTTGGKIPIRWTAPEAIAFRTFSSASDVWSFGVVMWEVLAYGERPYWNMTNRDVISSVEEGYRLPAPMGCPHALHQLMLDCWHKDRAQRPRFSQIVSVLDALIRSPESLRATATVSRCPPPAFVRSCFDLRGGSGGGGGLTVGDWLDSIRMGRYRDHFAAGGYSSLGMVLRMNAQDVRALGITLMGHQKKILGSIQTMRAQLTSTQGPRRHL
modifications: left off: a dimerising Fc or GST

These molecules were tested on kinases of Table 6 on Myelin Basic Protein (MBP) (assay: Kinase assay using MBP substrate, ProQ Diamond stain (Table 6)). Conditions: kinase printed on MBP-coated slide; 20 uM ATP, 30° C.; ProQ Diamond Microarray Stain; graded Strong/Weak/Negative.
Assay type: biochemical
Procedure, shortened: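 Reactions ran at 30° C. with 20 uM ATP, 4 mM MgCl2 and 5% DMSO in HEPES pH 7.5, inhibitor added or omitted. Kinases had been arrayed onto slide-bound dephosphorylated bovine MBP; phospho-signal read after ProQ Diamond staining.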

MBP Kinase Activity, Weak:
B2
B9

MBP Kinase Activity, Negative:
B4
B5
B7

MBP Kinase Activity, Strong:
B1
B3
B6
B8
